Laboratory results from the supplement of paper PMC7877785.
± gives the uncertainty stated by the source.

Assay: self-splicing fitness, log relative to wild type (ln ratio); higher = more splicing; Tetrahymena group I intron in knt gene, E. coli kanamycin selection, DiMSum; sequences stand for … in CUCUCU…GGAGGGAAAAGUUAUCAGGCAUGCACCUGGUAGCUAGUCUUUAAACCAAUAGAUUGCAUCGGUUUAAAAGGCAAGACCGUCAAAUUGCGGGAAAGGGGUCAACAGCCGUUCAGUACCAAGUCUCAGGGGAAACUUUGAGAUGGCCUUGCAAAGGGUAUGGUAAUAAGCUGACGGACAUGGUCCUAACCACGCAGCCAAGUCCUAAGUCAACAGAUCUUCUGUUGAUAUGGAUGCAGUUCACAGACUAAAUGUCGGUCGGGGAAGAUGUAUUCUUCUCAUAAGAUAUAGUCGGACCUCUCCUUAAUGGGAGCUAGCGGAUGAAGUGAUGCAACACUGGAGCCGCUGGGAACUAAUUUGUAUGCGAAAGUAUAUUGAUUAGUUUUGGAGUACUCGUGGUCG
Method in brief: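 A randomised library covering all eight P1ex-region intron nucleotides was built with the intron in the knt kanamycin-resistance gene on pET-22b(+) and held in E. coli BL21(DE3). Cells were grown overnight at 37°C or 30°C on LB agar, with or without 25 μg/mL kanamycin, plus 100 μg/mL carbenicillin, 50 μM IPTG and 0.2% rhamnose, and pooled colonies were amplicon-sequenced on an Illumina HiSeq 2500. DiMSum fitness is the error-weighted combination of wild-type-normalised replicate fold changes, kanamycin versus none.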

| Sequence | self-splicing fitness (ln) (30 °C) | self-splicing fitness (ln) (37 °C) |
| --- | --- | --- |
| GACUAGCAAUAUUACGACGA | -0.416 ± 0.074 | 0.00653 ± 0.078 |
| ACUUAGCAAUAUUACGAAUG | -2.24 ± 0.11 | -1.13 ± 0.12 |
| CUAGAGCAAUAUUACGCCUA | -2.2 ± 0.14 | -1.15 ± 0.12 |
| AUGGAGCAAUAUUACGACGA | – | 0.0911 ± 0.24 |
| CGAUAGCAAUAUUACGGAGA | -3.98 ± 0.42 | -2.4 ± 0.29 |
| GUUAAGCAAUAUUACGUCGA | -1.79 ± 0.11 | -1.02 ± 0.11 |
| GGUCAGCAAUAUUACGUAGG | -2.33 ± 0.15 | -1.84 ± 0.18 |
| CACGAGCAAUAUUACGUCAC | -3.41 ± 0.2 | -3.18 ± 0.37 |
| CGACAGCAAUAUUACGCAGG | -2.05 ± 0.081 | -0.906 ± 0.088 |
| CGAUAGCAAUAUUACGCGUU | -3.13 ± 0.24 | -2.51 ± 0.22 |
| GCGUAGCAAUAUUACGUCUA | -1.06 ± 0.22 | -0.924 ± 0.15 |
| UAGUAGCAAUAUUACGUCUC | -3.51 ± 0.45 | -1.59 ± 0.2 |
| GCACAGCAAUAUUACGAAAC | -0.701 ± 0.088 | -0.265 ± 0.12 |
| GGAUAGCAAUAUUACGUGAG | -1.33 ± 0.11 | 0.321 ± 0.1 |
| CAUCAGCAAUAUUACGUCUG | -0.675 ± 0.047 | 0.264 ± 0.059 |
| AGUCAGCAAUAUUACGAGCA | -0.935 ± 0.12 | -0.0144 ± 0.14 |
| CGACAGCAAUAUUACGCGUG | -1.55 ± 0.067 | -1.14 ± 0.095 |
| GGGGAGCAAUAUUACGGUGU | -3.87 ± 0.37 | -1.37 ± 0.22 |
| UCACAGCAAUAUUACGGAAC | -2.98 ± 0.21 | -2.45 ± 0.26 |

| Sequence | self-splicing fitness (ln) (30 °C) | self-splicing fitness (ln) (37 °C) |
| --- | --- | --- |
| UACGAGCAAUAUUACGCGGC | -3.65 ± 0.37 | -2.28 ± 0.28 |
| UAGUAGCAAUAUUACGGAGU | -4.27 ± 0.28 | -2.62 ± 0.16 |
| CAGGAGCAAUAUUACGUAUC | -3.11 ± 0.23 | -3.54 ± 0.27 |
| CACUAGCAAUAUUACGAUCA | -2.46 ± 0.17 | -1.22 ± 0.16 |
| UGCUAGCAAUAUUACGUCUU | -1.85 ± 0.093 | -0.906 ± 0.088 |
| GUUGAGCAAUAUUACGAACA | -2.67 ± 0.4 | -1.69 ± 0.32 |
| AUUGAGCAAUAUUACGCAUG | -4 ± 0.32 | -0.903 ± 0.26 |
| CCAAAGCAAUAUUACGCACG | -0.44 ± 0.087 | -0.583 ± 0.11 |
| CAUUAGCAAUAUUACGCGGC | -3.98 ± 0.28 | -1.8 ± 0.28 |
| AUUGAGCAAUAUUACGGACG | -2.11 ± 0.3 | -1.96 ± 0.32 |
| GCACAGCAAUAUUACGAGUG | -4.09 ± 0.26 | -2.64 ± 0.17 |
| UUGAAGCAAUAUUACGGAUC | -0.951 ± 0.15 | -0.501 ± 0.18 |
| CGAUAGCAAUAUUACGUAUU | -3.53 ± 0.25 | -2.61 ± 0.24 |
| GAAAAGCAAUAUUACGUCGA | -1.14 ± 0.088 | -0.0848 ± 0.12 |
| GCAUAGCAAUAUUACGAGUC | -2.44 ± 0.12 | -2.7 ± 0.17 |
| CCCUAGCAAUAUUACGCAGA | -3.68 ± 0.31 | -1.73 ± 0.15 |
| AACAAGCAAUAUUACGAUGG | -3.11 ± 0.094 | -1.72 ± 0.079 |
| CUCAAGCAAUAUUACGAAUG | -2.96 ± 0.15 | -1.66 ± 0.2 |
| AGCAAGCAAUAUUACGCACG | -1.44 ± 0.097 | -0.144 ± 0.13 |
